PMC3280250, “Functional Redundancy of Two Pax-Like Proteins in Transcriptional Activation of Cyst Wall Protein Genes in Giardia lamblia”
Positions count from the first letter of the chain named.

B1: cwp1-45/-1m4 (dsDNA)
DNA 1: GTTTACAACTCTCAGATCGGCGGGCACAGAAATAAAATATCAGGG
DNA 2: CCCTGATATTTTATTTCTGTGCCCGCCGATCTGAGAGTTGTAAAC
B2: cwp1-45/-1m9 (dsDNA)
DNA 1: GTTTACAACTCTCAGATCAAGAAACACAGAAATAAAATACGGGGG
DNA 2: CCCCCGTATTTTATTTCTGTGTTTCTTGATCTGAGAGTTGTAAAC
B3: cwp1-45/-1m11 (dsDNA)
DNA 1: B2 DNA 1 with T33A, T38A, C40A, G41C, G42A
DNA 2: B2 DNA 2 with C4T, C5G, G6T, A8T, A13T
B4: cwp1-45/-1m5 (dsDNA)
DNA 1: GTTTACAACTCTCAGATCAAGAAAGGGAGAAATAAAATATCAGGG
DNA 2: CCCTGATATTTTATTTCTCCCTTTCTTGATCTGAGAGTTGTAAAC
B5: cwp1-45/-1 (dsDNA)
DNA 1: B2 DNA 1 with C40T, G41C, G42A
DNA 2: B2 DNA 2 with C4T, C5G, G6A
B6: ran-30/-1 (dsDNA)
DNA 1: TAAAACTTTAACCCAGGAACCGAGAGTAGC
DNA 2: GCTACTCTCGGTTCCTGGGTTAAAGTTTTA
B7: cwp1-45/-1 single strand 1 (ssDNA)
DNA: B2 DNA 1 with C40T, G41C, G42A
B8: poly(A) with TTT insertion (dsDNA)
DNA 1: AAAAAAAAAATTTAAAAAAAAAA
DNA 2: TTTTTTTTTTAAATTTTTTTTTT
B9: cwp1-90/-69 (dsDNA)
DNA 1: CTGGCTAACAGTCTACAGTCTA
DNA 2: TAGACTGTAGACTGTTAGCCAG
B10: poly(A) with TT insertion (dsDNA)
DNA 1: AAAAAAAAAAATTAAAAAAAAAA
DNA 2: TTTTTTTTTTAATTTTTTTTTTT
B11: cwp1-90/-46 (dsDNA)
DNA 1: CTGGCTAACAGTCTACAGTCTACAATTTACAGTATACAATCTACA
DNA 2: TGTAGATTGTATACTGTAAATTGTAGACTGTAGACTGTTAGCCAG
B12: ran-81/-52 (dsDNA)
DNA 1: CAGAAAAAGTTGTCAAGGAGGTGATAGCCG
DNA 2: CGGCTATCACCTCCTTGACAACTTTTTCTG
B13: cwp2-60/-31 (dsDNA)
DNA 1: TAGACTGATGCTGTAGAGGTCAACAGATAA
DNA 2: TTATCTGTTGACCTCTACAGCATCAGTCTA
B14: myb2-60/-31 (dsDNA)
DNA 1: TGGCTATGTATTTTTTCTTCTTCTACAGCT
DNA 2: AGCTGTAGAAGAAGAAAAAATACATAGCCA
B15: poly(A) (dsDNA)
DNA 1: AAAAAAAAAAAAAAAAAAAAAAA
DNA 2: TTTTTTTTTTTTTTTTTTTTTTT
B16: ran-51/-20 (dsDNA)
DNA 1: TAAAATAAATTAAATCGAAATTAAAACTTTAA
DNA 2: TTAAAGTTTTAATTTCGATTTAATTTATTTTA
B17: poly(A) with T insertion (dsDNA)
DNA 1: AAAAAAAAAAATAAAAAAAAAAA
DNA 2: TTTTTTTTTTTATTTTTTTTTTT
B18: poly(A) with TC insertion (dsDNA)
DNA 1: AAAAAAAAAAATCAAAAAAAAAA
DNA 2: TTTTTTTTTTGATTTTTTTTTTT
B19: cwp3-30/+10 (dsDNA)
DNA 1: GTCTTTCCCAAAAAATAAGTTACTACTGATATGTTTTCTC
DNA 2: GAGAAAACATATCAGTAGTAACTTATTTTTTGGGAAAGAC
B20: cwp2-30/+8 (dsDNA)
DNA 1: CAGCAGCTCAACAGTGGCTGGGAAAATAAAATGATCGC
DNA 2: GCGATCATTTTATTTTCCCAGCCACTGTTGAGCTGCTG

Each binder was assayed against T1, Pax2 (Giardia lamblia, UniProt A8B733 1-302) (assay: EMSA; unchanged; EMSA: 0.02 pmol 5'-32P probe, 5 ng protein, 20 ul, 0.5 ug poly(dI-dC), 15 min at room temperature, 6% acrylamide gel; buffer, salt and pH only by reference [31]). Conditions: protein: recombinant; tags: C-terminal V5-His (pET101/D-TOPO); label: 5'-32P.
T1 sequence: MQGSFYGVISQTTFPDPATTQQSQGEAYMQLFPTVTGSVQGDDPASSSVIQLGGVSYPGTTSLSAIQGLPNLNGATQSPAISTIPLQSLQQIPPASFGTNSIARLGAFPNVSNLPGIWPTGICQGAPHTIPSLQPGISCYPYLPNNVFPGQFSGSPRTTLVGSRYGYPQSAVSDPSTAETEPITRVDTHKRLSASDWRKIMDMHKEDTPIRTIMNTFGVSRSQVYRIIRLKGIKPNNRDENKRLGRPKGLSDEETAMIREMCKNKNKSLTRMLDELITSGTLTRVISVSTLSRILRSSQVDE

Binder | binding result
B1 | binds
B2 | binds
B3 | binds
B4 | binds

These binders were tested against T1, Pax2 (assay: EMSA; self-competition and anti-V5 supershift assay confirm specificity; EMSA: 0.02 pmol 5'-32P probe, 5 ng protein, 20 ul, 0.5 ug poly(dI-dC), 15 min at room temperature, 6% acrylamide gel; buffer, salt and pH only by reference [31]). Conditions: protein: recombinant; tags: C-terminal V5-His (pET101/D-TOPO); label: 5'-32P.

Binder | binding result
B5 | binds

What follows are binders tested against T1, Pax2 (assay: EMSA; EMSA: 0.02 pmol 5'-32P probe, 5 ng protein, 20 ul, 0.5 ug poly(dI-dC), 15 min at room temperature, 6% acrylamide gel; buffer, salt and pH only by reference [31]). Conditions: protein: recombinant; tags: C-terminal V5-His (pET101/D-TOPO).

Binder | binding result
B6 | no binding
B7 | no binding

Same assay, conditions: protein: recombinant; tags: C-terminal V5-His (pET101/D-TOPO); label: 5'-32P

Binder | binding result
B8 | binds
B9 | no binding
B10 | binds
B11 | binds
B12 | no binding
B13 | no binding
B14 | no binding
B15 | binds
B16 | binds
B17 | binds
B18 | binds

Each binder was assayed against T2, Pax2m3 (Giardia lamblia, UniProt A8B733 1-171, del172-302) in the same assay as above. Conditions: protein: recombinant; tags: C-terminal V5-His (pET101/D-TOPO); label: 5'-32P.
T2 sequence: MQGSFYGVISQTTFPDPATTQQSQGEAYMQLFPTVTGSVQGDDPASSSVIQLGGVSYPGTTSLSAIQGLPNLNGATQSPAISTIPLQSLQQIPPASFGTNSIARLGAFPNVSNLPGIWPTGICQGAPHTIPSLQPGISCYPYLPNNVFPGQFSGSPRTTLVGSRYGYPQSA

Binder | binding result
B19 | no binding
B16 | no binding
B5 | no binding
B20 | no binding

These binders were tested against T1, Pax2 (assay: EMSA; strong binding; EMSA: 0.02 pmol 5'-32P probe, 5 ng protein, 20 ul, 0.5 ug poly(dI-dC), 15 min at room temperature, 6% acrylamide gel; buffer, salt and pH only by reference [31]). Conditions: protein: recombinant; tags: C-terminal V5-His (pET101/D-TOPO); label: 5'-32P.

Binder | binding result
B19 | binds
